Assay results as given in article doi:10.1101/321604.

Biological target: mUHRF1 C-terminally tagged with GFP- and 6xHis-tag (mouse) (UniProt Q8VDF2)
Experiment: MST

Chain of UniProt Q8VDF2 (Q8VDF2 whole entry): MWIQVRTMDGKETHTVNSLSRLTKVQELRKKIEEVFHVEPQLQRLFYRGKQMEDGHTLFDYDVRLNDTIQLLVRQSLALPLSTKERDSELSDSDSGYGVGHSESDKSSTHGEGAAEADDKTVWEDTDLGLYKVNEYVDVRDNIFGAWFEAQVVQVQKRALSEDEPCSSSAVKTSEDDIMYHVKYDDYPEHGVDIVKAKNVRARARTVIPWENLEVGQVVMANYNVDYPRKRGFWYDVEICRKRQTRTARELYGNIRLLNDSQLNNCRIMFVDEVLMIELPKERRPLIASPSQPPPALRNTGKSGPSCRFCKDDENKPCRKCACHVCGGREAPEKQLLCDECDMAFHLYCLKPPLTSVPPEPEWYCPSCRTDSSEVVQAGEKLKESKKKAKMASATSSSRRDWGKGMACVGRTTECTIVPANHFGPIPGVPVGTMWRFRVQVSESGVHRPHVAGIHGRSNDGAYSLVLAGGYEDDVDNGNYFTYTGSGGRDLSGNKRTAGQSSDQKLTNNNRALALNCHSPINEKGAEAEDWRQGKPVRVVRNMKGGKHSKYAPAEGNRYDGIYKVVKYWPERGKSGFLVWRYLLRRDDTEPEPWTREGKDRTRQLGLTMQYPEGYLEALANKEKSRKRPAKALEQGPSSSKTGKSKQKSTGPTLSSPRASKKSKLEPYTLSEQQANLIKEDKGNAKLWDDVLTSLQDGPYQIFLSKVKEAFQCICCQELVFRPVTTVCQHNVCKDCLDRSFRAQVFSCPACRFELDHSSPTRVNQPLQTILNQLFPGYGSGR

Kd: 440 nM
Substance: GST-mDPPA3 wild-type (from UniProt Q8QZY3 1-150) (natural protein)
